This note sets out measurements from the Human Domainome abundance scans (Beltran et al. 2025).

To fix the notation:
B1: Glucocorticoid receptor, residues 419 to 494; numbered along this chain, P04150 (parent)
chain: KLCLVCSDEASGCHYGVLTCGSCKVFFKRAVEGQHNYLCAGRNDCIIDKIRRKNCPACRYRKCLQAGMNLEARKTK

± gives the uncertainty stated by the source.

This series covers variants of B1. The experiment in a line: abundance fitness (aPCA) (normalised: wild type 0, dead -1); higher = more abundant; growth selection in yeast, the domain comes from the species named. The settings on record: Homo sapiens.
For the variant R52S, the abundance fitness is -0.12 ± 0.043.
For the variant I47M, the abundance fitness is -0.143 ± 0.049.
In the case of I47D, the abundance fitness is -0.072 ± 0.086.
Take I47V: the abundance fitness was found to be 0.015 ± 0.033.
Then I47T, with -0.125 ± 0.039; and I47G, with -0.304 ± 0.034.
In the case of A40L it was -0.065 ± 0.039.
Then A40Y, with -0.032 ± 0.095; and A40G, with -0.04 ± 0.031.
A40M: the abundance fitness was -0.058 ± 0.046.
In the case of A40N it was -0.024 ± 0.075.
Turning to A40R, the abundance fitness was -0.043 ± 0.031.
In the case of V25N it was -0.081 ± 0.09; in that of V25T, -0.019 ± 0.062.
Consider V25W, for which the abundance fitness was -0.039 ± 0.062.
As for F26S, the abundance fitness is -0.703 ± 0.076.
For the variant F26V, the abundance fitness was -0.738 ± 0.084.
Turning to F26H, the abundance fitness is -0.513 ± 0.16.
K1D: the abundance fitness is -0.002 ± 0.083.
Consider K1E, for which the abundance fitness is -0.048 ± 0.054.
K1N: the abundance fitness is -0.12 ± 0.088.
On to C63I, for which the abundance fitness was -0.546 ± 0.23.
Turning to C63W, the abundance fitness is -0.889 ± 0.12.
Turning to C63L, the abundance fitness is -0.741 ± 0.068.
Take N43R: the abundance fitness was -0.052 ± 0.03.
Turning to N43L, the abundance fitness is -0.123 ± 0.033.
Then N43I, with -0.233 ± 0.19.
In the case of N43D it was -0.008 ± 0.057; in that of D8W, -0.521 ± 0.064.
On to D8N, for which the abundance fitness was -0.147 ± 0.089.
In the case of D8L, the abundance fitness is -0.646 ± 0.071.
Turning to D44L, the abundance fitness was -0.189 ± 0.045.
In the case of D44K it was -0.062 ± 0.058; in that of D44N, -0.073 ± 0.1; in that of D44I, -0.344 ± 0.14.
Then D44Y, with -0.37 ± 0.13; and R51L, with -0.031 ± 0.041.
R51S: the abundance fitness was -0.023 ± 0.039.
In the case of R51G it was 0.009 ± 0.031; in that of R51I, -0.134 ± 0.1; in that of R51F, 0.051 ± 0.11.
Then R51P, with -0.136 ± 0.054; and G12Q, with -0.034 ± 0.048.
Regarding G12A, the abundance fitness is -0.101 ± 0.041.
In the case of F27G, the abundance fitness is -0.929 ± 0.089.
For the variant F27V, the abundance fitness is -0.386 ± 0.041.
Regarding F27W, the abundance fitness was -0.071 ± 0.038.
F27C: the abundance fitness is -0.518 ± 0.11.
Regarding F27A, the abundance fitness was -0.25 ± 0.038.
Then V5H, with -0.848 ± 0.33.
Take V5C: the abundance fitness is -0.749 ± 0.15.
For V5M, the abundance fitness was -0.681 ± 0.095.
Then V5K, with -1.15 ± 0.32; and V5L, with -0.611 ± 0.064.
Consider V5G, for which the abundance fitness is -0.732 ± 0.076.
On to V5I, for which the abundance fitness was -0.007 ± 0.051.
As to L2C, the abundance fitness was -0.068 ± 0.05.
Then L2Q, with 0.029 ± 0.062; and L2Y, with 0.14 ± 0.065.
In the case of L2P, the abundance fitness is -0.39 ± 0.068.
Take L2I: the abundance fitness turned out to be 0.114 ± 0.075.
On to T75L, for which the abundance fitness worked out at 0.054 ± 0.043.
Regarding T75R, the abundance fitness was -0.01 ± 0.04.
In the case of T75Q, the abundance fitness is -0.099 ± 0.063.
Consider T75I, for which the abundance fitness was -0.044 ± 0.072.
In the case of T75H, the abundance fitness was -0.038 ± 0.078.
In the case of T75P, the abundance fitness was -0.005 ± 0.048.
Take T75W: the abundance fitness was determined as 0.047 ± 0.052.
On to Q65R, for which the abundance fitness was -0.053 ± 0.031.
In the case of Q65F it was -0.045 ± 0.065; in that of Q65T, -0.086 ± 0.042.
Regarding Q65H, the abundance fitness was 0.09 ± 0.062.
Turning to Q65N, the abundance fitness was -0.071 ± 0.073.
For the variant Q65Y, the abundance fitness is -0.09 ± 0.066.
As for I46W, the abundance fitness was -0.137 ± 0.036.
In the case of I46H it was -0.045 ± 0.063; in that of I46N, -0.002 ± 0.074.
For A66G, the abundance fitness is -0.109 ± 0.044.
For the variant A66L, the abundance fitness is -0.024 ± 0.037.
On to A66R, for which the abundance fitness was -0.179 ± 0.036.
For the variant A66M, the abundance fitness was -0.031 ± 0.049.
As to A66H, the abundance fitness was -0.052 ± 0.051.
As for A66I, the abundance fitness was -0.242 ± 0.073.
On to A66T, for which the abundance fitness was determined as 0.029 ± 0.047.
Then A66P, with -0.859 ± 0.14; and G21E, with 0.076 ± 0.042.
Turning to G21Q, the abundance fitness is 0.13 ± 0.055.
Consider S11Q, for which the abundance fitness was 0.047 ± 0.053.
As for S11F, the abundance fitness is -0.127 ± 0.088.
In the case of S11W, the abundance fitness was -0.236 ± 0.05.
Then S11E, with 0.054 ± 0.044.
For the variant S11M, the abundance fitness is -0.015 ± 0.049.
For the variant K62W, the abundance fitness is -0.505 ± 0.064.
Then K62S, with -0.166 ± 0.044; and K62D, with -0.336 ± 0.082; and K62M, with -0.042 ± 0.041.
As for K62L, the abundance fitness is -0.048 ± 0.034.
In the case of G33T, the abundance fitness was -0.139 ± 0.055.
In the case of G33V, the abundance fitness is -0.044 ± 0.034.
As to G33Q, the abundance fitness was -0.017 ± 0.048.
As for G33W, the abundance fitness is -0.135 ± 0.038.
For G33F, the abundance fitness was -0.052 ± 0.083.
As for G33Y, the abundance fitness came to 0.035 ± 0.065.
As for G33L, the abundance fitness is -0.093 ± 0.035.
In the case of N69F it was -0.023 ± 0.062; in that of N69L, -0.11 ± 0.036; in that of N69E, -0.02 ± 0.043.
For N69Y, the abundance fitness is -0.105 ± 0.066.
Then G41I, with -0.101 ± 0.061.
Then G41C, with -0.005 ± 0.059; and G41S, with -0.031 ± 0.039.
Consider G41W, for which the abundance fitness is -0.017 ± 0.037.
Consider G41D, for which the abundance fitness was -0.049 ± 0.05.
Then G41N, with 0.032 ± 0.075; and G41Y, with -0.123 ± 0.085; and S7Q, with 0.029 ± 0.046.
For the variant S7E, the abundance fitness was 0.012 ± 0.042.
In the case of S7I, the abundance fitness was -0.725 ± 0.16.
Then L64K, with -0.01 ± 0.045; and L64M, with -0.023 ± 0.053.
In the case of L64N, the abundance fitness was -0.083 ± 0.082.
In the case of L64W, the abundance fitness is -0.031 ± 0.038.
For the variant Y60A, the abundance fitness was -0.425 ± 0.052.
As to Y60V, the abundance fitness was -0.215 ± 0.037.
Then Y60L, with 0.002 ± 0.036.
Turning to Y60P, the abundance fitness is -0.724 ± 0.12.
As for Y60D, the abundance fitness was -0.907 ± 0.17.
Consider C39D, for which the abundance fitness was -0.863 ± 0.17.
Then C39L, with -0.923 ± 0.1; and H35L, with -0.025 ± 0.034.
Then H35N, with 0.11 ± 0.08; and H35C, with -0.128 ± 0.065.
In the case of H35W it was -0.074 ± 0.039; in that of H35Y, -0.08 ± 0.09.
In the case of N54C, the abundance fitness was -0.136 ± 0.062.
On to N54S, for which the abundance fitness was -0.081 ± 0.043.
In the case of N54Y it was 0.014 ± 0.097; in that of N54I, 0.014 ± 0.094.
Regarding S22D, the abundance fitness was found to be 0.136 ± 0.3.
As for C45Q, the abundance fitness was -0.558 ± 0.2.
Turning to C45L, the abundance fitness was -0.917 ± 0.12.
In the case of G67R, the abundance fitness is -0.491 ± 0.055.
For the variant G67T, the abundance fitness was -0.51 ± 0.08.
For the variant G67D, the abundance fitness was -0.347 ± 0.12.
On to G67V, for which the abundance fitness is -0.583 ± 0.076.
For the variant V17D, the abundance fitness was -0.405 ± 0.12.
Regarding V17W, the abundance fitness is -0.641 ± 0.084.
In the case of V17C it was 0.057 ± 0.062; in that of V17M, -0.379 ± 0.35.
In the case of V17P it was -0.215 ± 0.064; in that of G16H, -0.291 ± 0.072.
On to G16R, for which the abundance fitness is -0.318 ± 0.04.
In the case of G16P it was -0.302 ± 0.051; in that of G16M, -0.369 ± 0.08.
As to G16K, the abundance fitness was -0.295 ± 0.055.
Regarding G16D, the abundance fitness is -0.078 ± 0.064.
G16S: the abundance fitness is -0.182 ± 0.04.
Consider A57P, for which the abundance fitness was -0.247 ± 0.053.
Then A57E, with -0.146 ± 0.039; and A57Q, with -0.195 ± 0.05; and A57G, with -0.071 ± 0.03.
Consider L4N, for which the abundance fitness was -0.01 ± 0.047.
In the case of L4Q it was 0.047 ± 0.045; in that of L4P, -0.098 ± 0.046; in that of L4Y, -0.029 ± 0.062.
In the case of L4S it was -0.026 ± 0.039; in that of L4G, -0.03 ± 0.032.
